8 substances from patent US20190031718A1 can be followed below.

For assay [1], the target named is TAT-CaM (HIV; human). Description: BLI (Octet QK), biotinylated TAT-CaM on streptavidin sensors, cargo as analyte, global 1:1 association-then-dissociation fit. For orientation: In BLI a coated tip is dipped into the sample, and binding shifts an interference pattern.
In assay [2] the target is TAT-CaM (HIV; human). In words: BLI, dissociation after moving sensors to buffer with 10 mM EDTA (1 µM sample).
Assay [3] addresses TAT-CaM (HIV; human). In words: BLI, dissociation upon exposure to EDTA.
The target of assay [4] is CBS-myoglobin. In words: BLI, sensor exposed to the highest analyte concentration, then dipped into buffer with EDTA.
In assay [5] the target is CBS-myoglobin. Description: BLI, biotinylated CPP-adapter on streptavidin sensors, CBS-myoglobin as analyte (1 µM to 63 nM), one-state association-then-dissociation fit.
Assay [6] has as its target CBS-myoglobin. In words: BLI, dissociation in buffer with EDTA.
Assay [7] addresses troponin inhibitory peptide-myoglobin. In words: BLI, sensor exposed to the highest analyte concentration, then dipped into buffer with EDTA.
For assay [8] the target is unchanged. Description: BLI, biotinylated TAT-troponin on streptavidin sensors, troponin inhibitory peptide-myoglobin as analyte (1 µM to 63 nM), one-state association-then-dissociation fit.
Assay [9] deals with TAT-CaM (HIV; human). Description: BLI (Octet QK), biotinylated TAT-CaM on streptavidin sensors, eNOS as analyte, global 1:1 association-then-dissociation fit.

Chain of CBS-HRP (P00433 31-338): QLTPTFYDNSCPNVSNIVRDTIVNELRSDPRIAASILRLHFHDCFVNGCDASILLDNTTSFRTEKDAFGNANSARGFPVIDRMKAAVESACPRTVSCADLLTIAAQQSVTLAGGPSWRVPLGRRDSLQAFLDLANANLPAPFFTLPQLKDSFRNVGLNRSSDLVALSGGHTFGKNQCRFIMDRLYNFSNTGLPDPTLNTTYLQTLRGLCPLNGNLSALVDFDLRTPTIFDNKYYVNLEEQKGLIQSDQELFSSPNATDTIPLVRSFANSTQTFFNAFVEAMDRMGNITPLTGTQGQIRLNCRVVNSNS
Chain of endothelial nitric oxide synthase (enzyme) (P29473 2-1205): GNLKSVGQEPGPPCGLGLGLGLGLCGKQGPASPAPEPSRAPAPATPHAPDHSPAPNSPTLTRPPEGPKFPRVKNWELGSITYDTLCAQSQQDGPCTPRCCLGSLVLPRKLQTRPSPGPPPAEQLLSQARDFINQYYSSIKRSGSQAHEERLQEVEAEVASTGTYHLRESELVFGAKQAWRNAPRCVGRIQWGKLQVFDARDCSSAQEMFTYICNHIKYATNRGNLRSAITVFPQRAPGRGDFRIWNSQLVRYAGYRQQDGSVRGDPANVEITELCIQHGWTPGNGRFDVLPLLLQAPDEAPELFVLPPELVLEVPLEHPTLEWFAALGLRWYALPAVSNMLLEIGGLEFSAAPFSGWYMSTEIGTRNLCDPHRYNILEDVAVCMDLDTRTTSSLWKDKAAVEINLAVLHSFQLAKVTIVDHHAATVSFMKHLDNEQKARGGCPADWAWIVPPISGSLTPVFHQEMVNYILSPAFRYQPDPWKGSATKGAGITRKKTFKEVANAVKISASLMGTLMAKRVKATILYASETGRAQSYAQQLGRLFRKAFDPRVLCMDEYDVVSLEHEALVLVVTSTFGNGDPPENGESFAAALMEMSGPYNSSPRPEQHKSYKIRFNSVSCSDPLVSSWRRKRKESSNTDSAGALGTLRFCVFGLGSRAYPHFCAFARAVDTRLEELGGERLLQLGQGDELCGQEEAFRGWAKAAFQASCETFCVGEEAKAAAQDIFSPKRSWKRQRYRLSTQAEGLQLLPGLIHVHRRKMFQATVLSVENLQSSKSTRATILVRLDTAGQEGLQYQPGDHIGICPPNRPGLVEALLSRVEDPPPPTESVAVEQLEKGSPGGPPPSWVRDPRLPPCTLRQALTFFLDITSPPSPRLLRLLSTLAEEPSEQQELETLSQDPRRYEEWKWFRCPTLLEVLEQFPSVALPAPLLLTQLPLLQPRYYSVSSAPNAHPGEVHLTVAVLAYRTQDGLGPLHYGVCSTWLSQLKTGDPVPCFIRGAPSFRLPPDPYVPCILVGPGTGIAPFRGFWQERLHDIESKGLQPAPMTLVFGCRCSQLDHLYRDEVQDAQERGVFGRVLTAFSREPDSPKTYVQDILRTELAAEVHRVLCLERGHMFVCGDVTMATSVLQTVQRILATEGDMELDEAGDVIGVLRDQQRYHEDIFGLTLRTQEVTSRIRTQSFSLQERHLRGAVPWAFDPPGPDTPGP

Broadly, the Kd is the constant that tells how readily two partners part at equilibrium. A low value points to tighter binding. The term koff denotes the rate constant with which the complex falls apart. The term kon denotes the second-order rate constant of association. Lower therefore signals slow association. Consider “CBS-HRP (from UniProt P00433 31-338) (enzyme)”, for which, in the assay with TAT-CaM (HIV; human) [1], the Kd stood at 160 nM, the off-rate (koff) was 0.00028 s⁻¹ and the on-rate (kon) is 1700 M⁻¹ s⁻¹. The same substance came in with a koff (EDTA) with TAT-CaM (HIV; human) [2] of 0.2 s⁻¹. In the assay with TAT-CaM (HIV; human) [3], this substance registered a koff (EDTA) of 0.1 s⁻¹.
In the assay with TAT-CaM (HIV; human) [1], CBS-myoglobin came in with an equilibrium dissociation constant (Kd) of 0.9 nM, a koff of 5.5e-05 s⁻¹ and an on-rate (kon) of 59000 M⁻¹ s⁻¹. The substance further registered a koff (EDTA) in the assay with TAT-CaM (HIV; human) [2] of 0.09 s⁻¹. In the assay with TAT-CaM (HIV; human) [3], the koff (EDTA) stood at 0.1 s⁻¹.
The corresponding values for CBS-β-Gal (enzyme) are 73 nM, 0.00067 s⁻¹, 9200 M⁻¹ s⁻¹, 0.05 s⁻¹ and 0.1 s⁻¹.
Substance SAP(E)-CaM gave a koff (EDTA) with CBS-myoglobin [4] of 0.2 s⁻¹. In the assay with CBS-myoglobin [5], the Kd amounted to 13.3 nM, the off-rate (koff) was 0.00013 s⁻¹ and the kon amounted to 9400 M⁻¹ s⁻¹. The substance further gave a koff (EDTA) in the assay with CBS-myoglobin [6] of 0.1 s⁻¹.
In the case of TAT-CaM 2.0 (from UniProt P0DP23 2-149), the koff (EDTA) with CBS-myoglobin [4] is 0.17 s⁻¹; with CBS-myoglobin [6], 0.1 s⁻¹. The substance further registered a kon with CBS-myoglobin [5] of 4900 M⁻¹ s⁻¹.
“TAT-calmodulin like protein 3 (from UniProt P27482 1-149)” had a koff (EDTA) with CBS-myoglobin [4] of 0.07 s⁻¹. Besides, in the assay with CBS-myoglobin [5], the equilibrium dissociation constant (Kd) came to 29.8 nM, the off-rate (koff) worked out at 0.00018 s⁻¹ and the association rate constant (kon) came to 6100 M⁻¹ s⁻¹. The koff (EDTA) in the assay with CBS-myoglobin [6] came out at 0.1 s⁻¹.
In the case of TAT-troponin, the koff (EDTA) in assay [7] was 0.018 s⁻¹. The substance further gave an on-rate constant (kon) in assay [8] of 3700 M⁻¹ s⁻¹.
In the assay with TAT-CaM (HIV; human) [9], “endothelial nitric oxide synthase (enzyme)” showed a Kd of 15 nM, a koff of 0.00018 s⁻¹ and an association rate constant (kon) of 12000 M⁻¹ s⁻¹.
